Values of other authors in PMC11658791.
Read-outs that look alike come from different tables or passages of the source.

Experiments:
[1] = target: Colicin M (Cma) (Escherichia coli) (UniProt P05820)
TonB (Escherichia coli) [2] = target: TonB (Escherichia coli) (UniProt P02929)
TonB (Escherichia coli) [3] = target: TonB (Escherichia coli) (UniProt P02929); test: ITC
[4] = target: FpvAI (Pseudomonas aeruginosa) (UniProt P48632)
Chain of UniProt P48632 (P48632 44-815): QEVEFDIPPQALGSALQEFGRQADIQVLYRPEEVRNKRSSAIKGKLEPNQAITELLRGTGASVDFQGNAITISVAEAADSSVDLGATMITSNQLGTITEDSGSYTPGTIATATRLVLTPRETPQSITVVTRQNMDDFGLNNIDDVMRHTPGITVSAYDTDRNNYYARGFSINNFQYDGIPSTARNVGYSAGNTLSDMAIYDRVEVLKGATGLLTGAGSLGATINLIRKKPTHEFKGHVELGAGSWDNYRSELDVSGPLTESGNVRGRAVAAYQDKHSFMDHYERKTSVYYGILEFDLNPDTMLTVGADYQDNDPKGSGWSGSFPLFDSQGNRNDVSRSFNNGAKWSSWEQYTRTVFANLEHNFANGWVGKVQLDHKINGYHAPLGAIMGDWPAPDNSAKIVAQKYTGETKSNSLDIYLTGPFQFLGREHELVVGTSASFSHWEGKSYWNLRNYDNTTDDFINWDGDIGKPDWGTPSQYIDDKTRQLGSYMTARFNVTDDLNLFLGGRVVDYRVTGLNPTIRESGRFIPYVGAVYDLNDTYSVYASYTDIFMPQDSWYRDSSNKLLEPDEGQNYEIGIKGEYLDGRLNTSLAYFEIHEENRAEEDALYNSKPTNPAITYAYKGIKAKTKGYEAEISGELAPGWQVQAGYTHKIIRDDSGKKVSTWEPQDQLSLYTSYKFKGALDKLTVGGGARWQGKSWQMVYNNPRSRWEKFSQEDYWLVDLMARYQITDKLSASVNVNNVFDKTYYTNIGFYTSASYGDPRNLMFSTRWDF

Chain of UniProt P02929 (P02929 whole entry): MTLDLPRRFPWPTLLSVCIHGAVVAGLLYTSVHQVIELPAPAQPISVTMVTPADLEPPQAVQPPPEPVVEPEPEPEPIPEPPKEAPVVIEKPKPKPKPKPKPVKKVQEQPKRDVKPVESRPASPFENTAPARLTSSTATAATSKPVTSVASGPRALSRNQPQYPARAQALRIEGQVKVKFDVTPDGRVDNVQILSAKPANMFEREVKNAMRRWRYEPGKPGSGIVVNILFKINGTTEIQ
Chain of UniProt P05820 (P05820 whole entry): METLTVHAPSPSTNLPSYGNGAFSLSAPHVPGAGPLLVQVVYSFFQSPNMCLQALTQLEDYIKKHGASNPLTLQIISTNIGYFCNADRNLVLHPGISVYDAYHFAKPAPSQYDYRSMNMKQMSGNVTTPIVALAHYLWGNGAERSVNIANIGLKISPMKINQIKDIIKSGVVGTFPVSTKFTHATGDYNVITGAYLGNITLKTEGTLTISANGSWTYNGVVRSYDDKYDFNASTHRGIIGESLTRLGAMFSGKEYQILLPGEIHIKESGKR

| Substance | Kd [1] [nM] | Kd (TonB (Escherichia coli) [2]) [nM] | Kd (TonB (Escherichia coli) [3]) [nM] | Kd [4] [nM] |
| --- | --- | --- | --- | --- |
| FhuA (from UniProt P06971) | 3.5 | 20 | 200 |  |
| Pyocin S2 (pyoS2NTD) N-terminal domain (from UniProt Q06584) |  |  |  | 0.24 |
